# Source: IntAct's records for PubMed 20562859
# Assays:
# [1] = molecular target: atg5_human ATG5 (UniProt Q9H1Y0)
# [2] = molecular target: T1, fnip1_human FNIP1 (UniProt Q8TF40)
# T1 sequence: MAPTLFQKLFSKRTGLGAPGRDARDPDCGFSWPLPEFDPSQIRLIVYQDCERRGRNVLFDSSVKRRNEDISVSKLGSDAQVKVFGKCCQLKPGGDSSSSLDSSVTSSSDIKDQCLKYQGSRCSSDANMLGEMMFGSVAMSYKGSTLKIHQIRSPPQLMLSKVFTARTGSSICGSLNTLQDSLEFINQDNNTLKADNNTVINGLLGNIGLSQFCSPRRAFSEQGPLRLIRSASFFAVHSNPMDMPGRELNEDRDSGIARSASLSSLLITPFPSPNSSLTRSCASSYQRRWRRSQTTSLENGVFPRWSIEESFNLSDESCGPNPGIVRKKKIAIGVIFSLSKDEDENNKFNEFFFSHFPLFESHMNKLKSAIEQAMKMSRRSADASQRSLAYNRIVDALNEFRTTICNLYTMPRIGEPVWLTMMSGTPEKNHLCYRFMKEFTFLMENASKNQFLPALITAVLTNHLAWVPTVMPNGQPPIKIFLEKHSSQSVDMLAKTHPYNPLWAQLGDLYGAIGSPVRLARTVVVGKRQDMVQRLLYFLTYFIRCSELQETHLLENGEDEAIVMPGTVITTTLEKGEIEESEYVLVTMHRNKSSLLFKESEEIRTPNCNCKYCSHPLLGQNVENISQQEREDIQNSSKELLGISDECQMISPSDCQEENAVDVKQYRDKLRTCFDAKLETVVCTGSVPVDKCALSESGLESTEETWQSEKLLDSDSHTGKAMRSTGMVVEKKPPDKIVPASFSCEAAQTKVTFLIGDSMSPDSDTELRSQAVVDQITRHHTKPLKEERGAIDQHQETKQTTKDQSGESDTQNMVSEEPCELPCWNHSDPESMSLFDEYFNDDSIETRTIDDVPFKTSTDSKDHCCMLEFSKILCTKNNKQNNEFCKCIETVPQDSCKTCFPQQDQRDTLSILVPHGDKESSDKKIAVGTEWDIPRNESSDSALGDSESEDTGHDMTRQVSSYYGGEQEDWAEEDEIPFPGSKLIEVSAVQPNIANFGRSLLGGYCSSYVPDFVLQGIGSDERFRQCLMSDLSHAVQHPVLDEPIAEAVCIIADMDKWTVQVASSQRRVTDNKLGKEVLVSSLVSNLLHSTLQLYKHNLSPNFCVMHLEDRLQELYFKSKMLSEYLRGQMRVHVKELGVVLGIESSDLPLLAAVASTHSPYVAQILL
# [3] = molecular target: T2, rasf5_human RASSF5 (UniProt Q8WWW0)
# T2 sequence: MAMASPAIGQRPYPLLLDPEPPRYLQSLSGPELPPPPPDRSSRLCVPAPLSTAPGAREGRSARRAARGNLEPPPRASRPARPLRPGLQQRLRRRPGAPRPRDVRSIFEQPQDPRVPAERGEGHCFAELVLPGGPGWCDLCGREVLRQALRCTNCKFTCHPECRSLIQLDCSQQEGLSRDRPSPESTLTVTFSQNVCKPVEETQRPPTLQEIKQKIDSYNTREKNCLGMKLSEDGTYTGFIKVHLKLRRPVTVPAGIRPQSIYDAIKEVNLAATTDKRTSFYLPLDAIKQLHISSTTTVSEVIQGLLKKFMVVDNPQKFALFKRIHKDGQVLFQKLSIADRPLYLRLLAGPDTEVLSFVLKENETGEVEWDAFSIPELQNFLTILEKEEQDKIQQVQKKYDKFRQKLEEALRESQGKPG
# [4] = molecular target: uba5_human UBA5 (UniProt Q9GZZ9)
# uba5_human UBA5, sequence (Q9GZZ9 whole entry): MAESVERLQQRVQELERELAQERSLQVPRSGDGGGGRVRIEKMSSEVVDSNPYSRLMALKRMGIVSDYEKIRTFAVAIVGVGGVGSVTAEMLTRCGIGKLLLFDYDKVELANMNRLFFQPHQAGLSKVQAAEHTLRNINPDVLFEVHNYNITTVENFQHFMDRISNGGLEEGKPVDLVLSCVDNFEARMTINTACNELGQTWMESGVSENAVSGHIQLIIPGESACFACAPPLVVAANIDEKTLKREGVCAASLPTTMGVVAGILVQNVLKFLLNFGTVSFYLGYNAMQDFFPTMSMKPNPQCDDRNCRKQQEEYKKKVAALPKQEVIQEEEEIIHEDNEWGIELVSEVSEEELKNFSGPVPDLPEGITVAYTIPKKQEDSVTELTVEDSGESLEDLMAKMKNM
# [5] = molecular target: T3, ulk1_human ULK1 (UniProt O75385)
# T3 sequence: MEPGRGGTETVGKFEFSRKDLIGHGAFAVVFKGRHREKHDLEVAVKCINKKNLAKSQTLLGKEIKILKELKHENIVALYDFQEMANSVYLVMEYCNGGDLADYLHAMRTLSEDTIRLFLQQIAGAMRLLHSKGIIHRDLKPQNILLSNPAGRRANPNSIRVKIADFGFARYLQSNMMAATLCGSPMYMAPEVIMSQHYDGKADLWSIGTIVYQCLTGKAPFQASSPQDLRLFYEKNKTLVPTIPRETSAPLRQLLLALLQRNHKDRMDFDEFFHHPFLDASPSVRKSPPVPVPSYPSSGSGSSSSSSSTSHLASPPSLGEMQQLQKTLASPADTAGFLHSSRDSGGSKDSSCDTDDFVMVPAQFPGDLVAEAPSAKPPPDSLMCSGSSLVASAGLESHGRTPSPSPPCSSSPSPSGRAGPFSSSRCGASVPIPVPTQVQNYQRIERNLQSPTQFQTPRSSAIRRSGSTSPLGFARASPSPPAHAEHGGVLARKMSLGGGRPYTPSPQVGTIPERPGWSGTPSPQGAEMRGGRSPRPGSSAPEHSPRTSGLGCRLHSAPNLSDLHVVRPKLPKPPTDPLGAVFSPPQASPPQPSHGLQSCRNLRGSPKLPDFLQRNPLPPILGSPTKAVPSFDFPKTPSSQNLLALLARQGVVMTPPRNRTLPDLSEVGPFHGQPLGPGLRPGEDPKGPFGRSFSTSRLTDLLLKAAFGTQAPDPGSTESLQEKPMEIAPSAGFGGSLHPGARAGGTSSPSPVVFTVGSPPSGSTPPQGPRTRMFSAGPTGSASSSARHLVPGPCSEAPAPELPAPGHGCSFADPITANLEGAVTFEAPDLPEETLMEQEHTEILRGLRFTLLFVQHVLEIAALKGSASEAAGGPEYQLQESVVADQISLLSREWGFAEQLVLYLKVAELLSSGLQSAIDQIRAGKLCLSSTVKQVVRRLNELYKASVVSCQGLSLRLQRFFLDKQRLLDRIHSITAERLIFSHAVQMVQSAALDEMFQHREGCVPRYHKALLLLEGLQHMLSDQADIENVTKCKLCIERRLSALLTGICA
# atg5_human ATG5, sequence (Q9H1Y0 whole entry): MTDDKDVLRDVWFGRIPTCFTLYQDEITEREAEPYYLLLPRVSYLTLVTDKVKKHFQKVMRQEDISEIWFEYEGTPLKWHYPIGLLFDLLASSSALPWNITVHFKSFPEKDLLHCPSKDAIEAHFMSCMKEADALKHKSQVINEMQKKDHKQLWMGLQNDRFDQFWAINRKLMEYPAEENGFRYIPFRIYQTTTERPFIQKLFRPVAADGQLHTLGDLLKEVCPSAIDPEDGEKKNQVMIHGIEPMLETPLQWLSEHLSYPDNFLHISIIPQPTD
effect of a mutation on the interaction [1],effect of a mutation on the interaction [2],effect of a mutation on the interaction [3],effect of a mutation on the interaction [4],effect of a mutation on the interaction [5],Substance
increasing interaction,increasing interaction,increasing interaction,,,Microtubule-associated protein 1 light chain 3 beta (Homo sapiens) (from UniProt Q9GZQ8) F52A;L53A
,,,disrupting interaction,decreasing interaction,Microtubule-associated protein 1 light chain 3 beta (Homo sapiens) (from UniProt Q9GZQ8) R69A
